Measured values published in article PMC8435816 (Synthetic and Systems Biotechnology, 2021).

Target: the molecule itself
Assay: negative-stain transmission electron microscopy

B1: T. maritima encapsulin with His6 insert with Strep-tag (TmEnc-STII) (natural protein, Thermotoga maritima)
chain: MEFLKRSFAPLTEKQWQEIDNRAREIFKTQLYGRKFVDVEGPGGGGGGHHHHHHGGGGGYGWEYAAHPLGEVEVLSDENEVVKWGLRKSLPLIELRATFTLDLWELDNLERGKPNVDLSSLEETVRKVAEFEDEVIFRGCEKSGVKGLLSFEERKIECGSTPKDLLEAIVRALSIFSKDGIEGPYTLVINTDRWINFLKEEAGHYPLEKRVEECLRGGKIITTPRIEDALVVSERGGDFKLILGQDLSIGYEDREKDAVRLFITETFTFQVVNPEALILLKF
binding result: binds
